Results on 1 molecule are retold here after patent US20130273058A1.

This assay deals with GFP-tagged beta-catenin (UniProt P35222). Nature of the assay: microscale thermophoresis (Monolith NT.115); lysate of HEK293 cells with GFP-beta-catenin mixed with increasing CT-HC-5 in the presence of bicelles; Hill fit. In general terms: MST reads how a fluorescent partner responds to local heating, with and without ligand.

[ ]: non-standard residue; d: D form. The star is where a group is joined. Palmitoyl = CCCCCCCCCCCCCCCC(=O)*

GFP-tagged beta-catenin, sequence (P35222 whole entry): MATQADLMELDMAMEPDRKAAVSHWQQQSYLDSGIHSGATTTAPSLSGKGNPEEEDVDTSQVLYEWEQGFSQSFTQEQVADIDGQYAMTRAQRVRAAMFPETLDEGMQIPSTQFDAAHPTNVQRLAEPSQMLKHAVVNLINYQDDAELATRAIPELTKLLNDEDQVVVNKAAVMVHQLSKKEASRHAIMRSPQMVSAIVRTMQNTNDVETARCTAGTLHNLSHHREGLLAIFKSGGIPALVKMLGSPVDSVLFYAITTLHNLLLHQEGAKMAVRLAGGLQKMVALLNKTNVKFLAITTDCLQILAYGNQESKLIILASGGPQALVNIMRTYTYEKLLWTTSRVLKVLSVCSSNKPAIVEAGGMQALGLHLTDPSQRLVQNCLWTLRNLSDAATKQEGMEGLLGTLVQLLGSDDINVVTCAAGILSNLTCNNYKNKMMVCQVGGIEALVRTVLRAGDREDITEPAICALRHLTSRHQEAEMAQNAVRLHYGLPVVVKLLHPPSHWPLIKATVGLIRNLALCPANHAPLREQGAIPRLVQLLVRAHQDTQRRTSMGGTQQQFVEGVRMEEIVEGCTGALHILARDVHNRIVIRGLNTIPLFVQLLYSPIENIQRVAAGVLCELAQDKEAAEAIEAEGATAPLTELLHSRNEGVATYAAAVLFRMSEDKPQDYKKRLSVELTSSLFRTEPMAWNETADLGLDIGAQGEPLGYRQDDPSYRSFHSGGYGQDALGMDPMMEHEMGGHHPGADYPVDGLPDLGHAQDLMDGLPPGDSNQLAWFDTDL

B1: CT-HC-5 (peptide)
peptide: Palmitoyl-[dT][dR][dF][dL][dS][dS][dT][dL][dE][dV][dS][dL][dR][dK][dK]-NH2
SMILES: CCCCCCCCCCCCCCCC(=O)N[C@@H](C(=O)N[C@H](CCCNC(=N)N)C(=O)N[C@H](Cc1ccccc1)C(=O)N[C@H](CC(C)C)C(=O)N[C@H](CO)C(=O)N[C@H](CO)C(=O)N[C@@H](C(=O)N[C@H](CC(C)C)C(=O)N[C@H](CCC(=O)O)C(=O)N[C@@H](C(=O)N[C@H](CO)C(=O)N[C@H](CC(C)C)C(=O)N[C@H](CCCNC(=N)N)C(=O)N[C@H](CCCCN)C(=O)N[C@H](CCCCN)C(N)=O)C(C)C)[C@H](C)O)[C@H](C)O
Regarding B1, the dissociation constant Kd (in general, the concentration at which binding is half-saturated) worked out at 2700 nM.
